PMC5376091

Target: wild type (WT) Aβ40 peptide (human)

Aβ40 A2T variant, full-length (peptide)
ThT fibrillization of 25 μM WT Aβ40 co-incubated with full-length A2T (WT to A2T 1 to 1 and 1 to 2): extension of the lag phase: 8 h

A2V NTF(1–10) (peptide)
ThT fibrillization of 25 μM WT Aβ40 co-incubated with A2V NTF(1–10) (1 to 1 and 1 to 6): shortening of the lag phase: 8 h | ThT signal of the end-point product of 25 μM WT Aβ40 with A2V NTF(1–10) (1 fold and 6 fold), against WT only: 22%

Aβ40 A2V variant, full-length (peptide)
ThT fibrillization of 25 μM WT Aβ40 co-incubated with full-length A2V (WT to A2V 1 to 1 and 1 to 2): shortening of the lag time: 6 h | ThT signal at the final plateau of 25 μM WT Aβ40 mixed with two fold full-length A2V, against WT alone: 40%

DTEFRHDSYG [A2T NTF(1–10)]
ThT fibrillization of 25 μM WT Aβ40 co-incubated with A2T NTF(1–10) (1 to 1 and 1 to 6): decrease of the ThT plateau: 20%
